According to PMC5224519, “Developing the IVIG biomimetic, Hexa-Fc, for drug and vaccine applications” (Scientific Reports, 2015):

Experiments:
hIgG1-Fc-CL309/310CH-TP = test: non-reducing SDS-PAGE (blot and Coomassie); 5 μg purified Fc on 4-12% bis-Tris gradient gels, non-reducing or reducing; blot with goat anti-human IgG or Coomassie blue
[1] = target: soluble recombinant human DC-SIGN tetramers (human) (UniProt Q9NNX6); test: SPR; multichannel SPR (ProteOn XPR36); DC-SIGN or SIGNR1 amine-coupled on GLM chips; Ig preparations or gp120 as analytes, 25°C, 25 μl per minute; 1:1 Langmuir model
[2] = target: recombinant SIGNR1 (mouse) (UniProt Q8CJ91); test: as above
[3] = target: soluble recombinant human DC-SIGN tetramers (human) (UniProt Q9NNX6); test: ELISA; binding to human DC-SIGN of Igs untreated or treated with PNGase F, Endo S or Endo H (Figure S8); format not told in the text shown
[4] = target: T1, soluble recombinant human DC-SIGN tetramers (human, UniProt Q9NNX6 1-404); test: SPR; multichannel SPR (ProteOn XPR36); DC-SIGN or SIGNR1 amine-coupled on GLM chips; Ig preparations or gp120 as analytes, 25°C, 25 μl per minute; 1:1 Langmuir model; details: both partners purified
T1 construct: human DC-SIGN, soluble recombinant; also called dendritic cell-specific intercellular adhesion molecule-3-grabbing non-integrin
T1 sequence (looked up): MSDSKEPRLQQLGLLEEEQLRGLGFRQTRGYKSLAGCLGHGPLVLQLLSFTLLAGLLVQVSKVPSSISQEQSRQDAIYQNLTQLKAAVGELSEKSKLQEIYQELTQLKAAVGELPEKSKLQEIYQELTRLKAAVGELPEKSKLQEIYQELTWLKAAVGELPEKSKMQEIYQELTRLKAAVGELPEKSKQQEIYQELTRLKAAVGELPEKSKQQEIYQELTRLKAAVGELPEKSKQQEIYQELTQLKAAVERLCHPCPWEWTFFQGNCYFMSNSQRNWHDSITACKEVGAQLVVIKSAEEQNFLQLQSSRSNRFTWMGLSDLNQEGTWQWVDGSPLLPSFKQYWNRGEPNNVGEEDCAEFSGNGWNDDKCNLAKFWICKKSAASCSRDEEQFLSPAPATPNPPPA

recombinant SIGNR1 = target: T2, recombinant SIGNR1 (mouse, UniProt Q8CJ91 1-325); test: as above; details: both partners purified
T2 construct: mouse SIGNR1, soluble recombinant; also called the mouse orthologue of the human DC-SIGN; source: bought: R&D systems
T2 sequence (looked up): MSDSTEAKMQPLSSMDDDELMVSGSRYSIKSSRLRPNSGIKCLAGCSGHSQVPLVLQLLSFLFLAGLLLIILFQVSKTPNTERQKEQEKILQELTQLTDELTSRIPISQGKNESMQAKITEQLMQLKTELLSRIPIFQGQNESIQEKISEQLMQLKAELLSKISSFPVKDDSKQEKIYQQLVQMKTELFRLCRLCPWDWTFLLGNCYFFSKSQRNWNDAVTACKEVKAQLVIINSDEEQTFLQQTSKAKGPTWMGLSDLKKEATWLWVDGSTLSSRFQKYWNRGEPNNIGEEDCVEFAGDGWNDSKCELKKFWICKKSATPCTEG

Molecule: hIgG1-Fc-CL309/310CH-TP
- stoichiometry N (hIgG1-Fc-CL309/310CH-TP): 6

Molecule: hexameric-Fc (hexa-Fc), hIgG1-Fc-TP-LH309/310CL
- Kd [1]: 1260 nM
- koff [1]: 0.000839 s⁻¹
- kon [1]: 668 M⁻¹ s⁻¹

Molecule: recombinant HIV gp120 (natural protein)
- Kd [2]: 3.91 nM
- koff [2]: 9.46e-05 s⁻¹
- kon [2]: 27700 M⁻¹ s⁻¹
- Kd [1]: 4.39 nM
- koff [1]: 0.000158 s⁻¹
- kon [1]: 36000 M⁻¹ s⁻¹

Molecule: PNGase F treated human IgM (antibody)
- residual binding [3]: 50%

B1: CHO cell derived recombinant (hexameric) IgM-Fc (domain or fragment)
chain: IAELPPKVSVFVPPRDGFFGNPRKSKLICQATGFSPRQIQVSWLREGKQVGSGVTTDQVQAEAKESGPTTYKVTSTLTIKESDWLGQSMFTCRVDHRGLTFQQNASSMCVPDQDTAIRVFAIPPSFASIFLTKSTKLTCLVTDLTTYDSVTISWTRQNGEAVKTHTNISESHPNATFSAVGEASICEDDWNSGERFTCTVTHTDLPSPLKQTISRPKGVALHRPDVYLLPPAREQLNLRESATITCLVTGFSPADVFVQWMQRGQPLSPEKYVTSAPMPEPQAPGRYFAHSILTVSEEEWNTGETYTCVVAHEALPNRVTERTVDKSTGKPTLYNVSLVMSDTAGTCY
modifications: CHO-cell N-glycans; disulfide-linked hexamer. Limits taken as Cmu2-Cmu4 plus tailpiece; needs the secreted isoform (453 aa), not the 474-aa membrane form displayed as P01871
- Kd [4]: 260 nM
- Kd (recombinant SIGNR1): 2200 nM
